Experimental data published in the supplement of paper PMC5998384.

Experiments:
HeLa Kyoto [1] = assay: solubility change mitosis vs G1/S (difference of NP-40 vs SDS log2 ratios) (log2 ratio difference); higher = more soluble in mitosis
HeLa Kyoto [2] = assay: thermal stability score vs G1/S (z-score of summed log2 fold changes over temperatures); higher = more thermally stable than in G1/S
HeLa Kyoto [3] = assay: melting temperature (median over replicates), in situ; higher = more thermally stable
HeLa Kyoto [4] = assay: solubility in G1/S (NP-40 vs SDS abundance) (log2 ratio); higher = more soluble; details: cell cycle stage: G1/S
[5] = cell cycle stage: early G1 (4.5 h after nocodazole release)
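Throughout, for melting temperature (median over replicates), in situ: HeLa Kyoto cells synchronized by double thymidine or nocodazole block, proteins quantified by TMT10plex mass spectrometry, three independent biological replicates.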
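Throughout, for solubility change mitosis vs G1/S (difference of NP-40 vs SDS log2 ratios): synchronized HeLa Kyoto cells (double thymidine block for G1/S, nocodazole release for mitosis), protein amounts in NP-40 versus SDS lysates quantified by mass spectrometry, three biological replicates.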
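Throughout, for solubility in G1/S (NP-40 vs SDS abundance): HeLa Kyoto cells arrested at G1/S by double thymidine block, proteins quantified by TMT10plex mass spectrometry in mild NP-40 versus SDS extracts, three biological replicates.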
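Throughout, for thermal stability score vs G1/S (z-score of summed log2 fold changes over temperatures): synchronized HeLa Kyoto cells, proteins quantified by TMT10plex mass spectrometry, three biological replicates, mitosis taken 0.5 h after nocodazole release, G1/S directly after double thymidine block.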

Sequence	solubility change mitosis (log2) (HeLa Kyoto [1])	thermal stability score (HeLa Kyoto [2]; [5])	thermal stability score (HeLa Kyoto [2]; cell cycle stage: mitosis)	melting temperature (HeLa Kyoto [3]; cell cycle stage: G1/S) [°C]	melting temperature (HeLa Kyoto [3]; cell cycle stage: mitosis) [°C]	solubility in G1/S (log2) (HeLa Kyoto [4])
MSRGPEEVNRLTESTYRNVMEQFNPGLRNLINLGKNYEKAVNAMILAGKAYYDGVAKIGEIATGSPVSTELGHVLIEISSTHKKLNESLDENFKKFHKEIIHELEKKIELDVKYMNATLKRYQTEHKNKLESLEKSQAELKKIRRKSQGSRNALKYEHKEIEYVETVTSRQSEIQKFIADGCKEALLEEKRRFCFLVDKHCGFANHIHYYHLQSAELLNSKLPRWQETCVDAIKVPEKIMNMIEEIKTPASTPVSGTPQASPMIERSNVVRKDYDTLSKCSPKMPPAPSGRAYTSPLIDMFNNPATAAPNSQRVNNSTGTSEDPSLQRSVSVATGLNMMKKQKVKTIFPHTAGSNKTLLSFAQGDVITLLIPEEKDGWLYGEHDVSKARGWFPSSYTKLLEENETEAVTVPTPSPTPVRSISTVNLSENSSVVIPPPDYLECLSMGAAADRRADSARTTSTFKAPASKPETAAPNDANGTAKPPFLSGENPFATVKLRPTVTNDRSAPIIR [BAIAP2L1]	-0.0797	1.74	1.36	52.7	54.1	0.326
MSRQNLVALTVTTLLGVAVGGFVLWKGIQRRRRSKTSPVTQQPQQKVLGSRELPPPEDDQLHSSAPRSSWKERILKAKVVTVSQEAEWDQIEPLLRSELEDFPVLGIDCEWVNLEGKASPLSLLQMASPSGLCVLVRLPKLICGGKTLPRTLLDILADGTILKVGVGCSEDASKLLQDYGLVVRGCLDLRYLAMRQRNNLLCNGLSLKSLAETVLNFPLDKSLLLRCSNWDAETLTEDQVIYAARDAQISVALFLHLLGYPFSRNSPGEKNDDHSSWRKVLEKCQGVVDIPFRSKGMSRLGEEVNGEATESQQKPRNKKSKMDGMVPGNHQGRDPRKHKRKPLGVGYSARKSPLYDNCFLHAPDGQPLCTCDRRKAQWYLDKGIGELVSEEPFVVKLRFEPAGRPESPGDYYLMVKENLCVVCGKRDSYIRKNVIPHEYRKHFPIEMKDHNSHDVLLLCTSCHAISNYYDNHLKQQLAKEFQAPIGSEEGLRLLEDPERRQVRSGARALLNAESLPTQRKEELLQALREFYNTDVVTEEMLQEAASLETRISNENYVPHGLKVVQCHSQGGLRSLMQLESRWRQHFLDSMQPKHLPQQWSVDHNHQKLLRKFGEDLPIQLS [EXD2]	-0.0547	0.38	0.455	49.7	49.6	0.113
MSRRLLPRAEKRRRRLEQRQQPDEQRRRSGAMVKMAAAGGGGGGGRYYGGGSEGGRAPKRLKTDNAGDQHGGGGGGGGGAGAAGGGGGGENYDDPHKTPASPVVHIRGLIDGVVEADLVEALQEFGPISYVVVMPKKRQALVEFEDVLGACNAVNYAADNQIYIAGHPAFVNYSTSQKISRPGDSDDSRSVNSVLLFTILNPIYSITTDVLYTICNPCGPVQRIVIFRKNGVQAMVEFDSVQSAQRAKASLNGADIYSGCCTLKIEYAKPTRLNVFKNDQDTWDYTNPNLSGQGDPGSNPNKRQRQPPLLGDHPAEYGGPHGGYHSHYHDEGYGPPPPHYEGRRMGPPVGGHRRGPSRYGPQYGHPPPPPPPPEYGPHADSPVLMVYGLDQSKMNCDRVFNVFCLYGNVEKVKFMKSKPGAAMVEMADGYAVDRAITHLNNNFMFGQKLNVCVSKQPAIMPGQSYGLEDGSCSYKDFSESRNNRFSTPEQAAKNRIQHPSNVLHFFNAPLEVTEENFFEICDELGVKRPSSVKVFSGKSERSSSGLLEWESKSDALETLGFLNHYQMKNPNGPYPYTLKLCFSTAQHAS [HNRNPL]	0.228	5.28	10.5	46.4	48.1	-0.26
MSRRYDSRTTIFSPEGRLYQVEYAMEAIGHAGTCLGILANDGVLLAAERRNIHKLLDEVFFSEKIYKLNEDMACSVAGITSDANVLTNELRLIAQRYLLQYQEPIPCEQLVTALCDIKQAYTQFGGKRPFGVSLLYIGWDKHYGFQLYQSDPSGNYGGWKATCIGNNSAAAVSMLKQDYKEGEMTLKSALALAIKVLNKTMDVSKLSAEKVEIATLTRENGKTVIRVLKQKEVEQLIKKHEEEEAKAEREKKEKEQKEKDK [PSMA4]	-0.0614	-0.647	-0.541	59.5	60.5	0.45
MSRSYNDELQFLEKINKNCWRIKKGFVPNMQVEGVFYVNDALEKLMFEELRNACRGGGVGGFLPAMKQIGNVAALPGIVHRSIGLPDVHSGYGFAIGNMAAFDMNDPEAVVSPGGVGFDINCGVRLLRTNLDESDVQPVKEQLAQAMFDHIPVGVGSKGVIPMNAKDLEEALEMGVDWSLREGYAWAEDKEHCEEYGRMLQADPNKVSARAKKRGLPQLGTLGAGNHYAEIQVVDEIFNEYAAKKMGIDHKGQVCVMIHSGSRGLGHQVATDALVAMEKAMKRDKIIVNDRQLACARIASPEGQDYLKGMAAAGNYAWVNRSSMTFLTRQAFAKVFNTTPDDLDLHVIYDVSHNIAKVEQHVVDGKERTLLVHRKGSTRAFPPHHPLIAVDYQLTGQPVLIGGTMGTCSYVLTGTEQGMTETFGTTCHGAGRALSRAKSRRNLDFQDVLDKLADMGIAIRVASPKLVMEEAPESYKNVTDVVNTCHDAGISKKAIKLRPIAVIKG [RTCB]	0.0881	-2.97	-3.42	53	52.4	0.171
MSRYLLPLSALGTVAGAAVLLKDYVTGGACPSKATIPGKTVIVTGANTGIGKQTALELARRGGNIILACRDMEKCEAAAKDIRGETLNHHVNARHLDLASLKSIREFAAKIIEEEERVDILINNAGVMRCPHWTTEDGFEMQFGVNHLGHFLLTNLLLDKLKASAPSRIINLSSLAHVAGHIDFDDLNWQTRKYNTKAAYCQSKLAIVLFTKELSRRLQGSGVTVNALHPGVARTELGRHTGIHGSTFSSTTLGPIFWLLVKSPELAAQPSTYLAVAEELADVSGKYFDGLKQKAPAPEAEDEEVARRLWAESARLVGLEAPSVREQPLPR [RDH13]	0.0735	-0.911	-0.156	51.1	51.6	0.415
